Starred links: 1 amine or outer side, 2 acyl side, 3 side chain; linkers in the order of their positions; H or OH if unused. Non-standard residues stand in square brackets, D forms with d. No end group written: not given here. *: point of attachment. sY = N[C@@H](Cc1ccc(OS(=O)(=O)O)cc1)C(=O)O; C18 diacid = O=C(O)CCCCCCCCCCCCCCCCC(=O)*; γGlu = O=C(O)[C@H](CCC(=O)[*:2])N[*:1]; dNMeD = CN[C@H](CC(=O)O)C(=O)O; Nle = CCCC[C@H](N)C(=O)O; AEEA = NCCOCCOCC(=O)O
T1: human cholecystokinin-2 receptor (human, UniProt P32239 1-447)
T1 sequence (looked up): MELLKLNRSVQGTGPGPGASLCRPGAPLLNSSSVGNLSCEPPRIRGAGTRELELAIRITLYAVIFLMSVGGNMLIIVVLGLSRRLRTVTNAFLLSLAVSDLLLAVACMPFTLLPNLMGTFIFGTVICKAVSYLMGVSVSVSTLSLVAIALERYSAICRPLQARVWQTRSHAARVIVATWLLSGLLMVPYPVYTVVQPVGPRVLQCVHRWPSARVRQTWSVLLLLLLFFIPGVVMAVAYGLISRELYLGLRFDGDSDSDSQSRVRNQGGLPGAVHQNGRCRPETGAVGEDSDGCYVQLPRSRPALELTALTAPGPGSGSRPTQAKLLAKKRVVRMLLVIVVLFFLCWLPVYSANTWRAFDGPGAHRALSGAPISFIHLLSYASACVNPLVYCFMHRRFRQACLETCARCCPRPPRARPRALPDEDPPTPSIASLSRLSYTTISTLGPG

B1: Glu-sTyr-Leu-Gly-Trp-Nle-DMeAsp-Phe-amide (peptide)
peptide: E[sY]LGW[Nle][dNMeD]F-NH2
modifications: N-terminus assumed
SMILES: CCCC[C@H](NC(=O)[C@H](Cc1c[nH]c2ccccc12)NC(=O)CNC(=O)[C@H](CC(C)C)NC(=O)[C@H](Cc1ccc(OS(=O)(=O)O)cc1)NC(=O)[C@@H](N)CCC(=O)O)C(=O)N(C)[C@H](CC(=O)O)C(=O)N[C@@H](Cc1ccccc1)C(N)=O
notes: X = Nle or Nal

Target: T1, human cholecystokinin-2 receptor
Assay: cell-based or functional assay

Molecule | EC50 (CCK-2R) [nM]
2-[2-[2-[[2-[2-[2-[[(4S)-4-Carboxy-4-(15-carboxypentadecanoylamino)butanoyl]amino]ethoxy]ethoxy]acetyl]amino]ethoxy]ethoxy]acetyl-Asp-Phe(4-sulfomethyl)-Leu-Gly-Trp-Nle-DMeAsp-MePhe-amide (peptide) | > 1000
Asp-sTyr-Leu-Gly-Trp-Nle-DMeAsp-Phe-amide (peptide) | > 1000
2-[2-[2-[[2-[2-[2-[[(4S)-4-Carboxy-4-(17-carboxyheptadecanoylamino)butanoyl]amino]ethoxy]ethoxy]acetyl]amino]ethoxy]ethoxy]acetyl-Asp-Phe(4-sulfomethyl)-Nle-Gly-Trp-Nle-DMeAsp-MePhe-amide (peptide) | > 1000
Glu-sTyr-Leu-Gly-Trp-Nle-DMeAsp-MePhe-amide (peptide) | 920
{C18 diacid-γGlu-AEEA-AEEA}-E[sY]LGWQ[dNMeD]F-NH2 | > 1000
E[sY]LGWQ[dNMeD]F-NH2 [Glu-sTyr-Leu-Gly-Trp-Gln-DMeAsp-Phe-amide] | > 1000
B1 | > 1000
